Where a chain is given by its changes, count along the chain named.

From patent US20100037349A1 (University of California, published 2010) come the findings set out here.

The target of experiment [1] is Arabidopsis NPR1 protein (Arabidopsis) (UniProt P93002). Description: cell-based or functional assay.
A further experiment concerns the target T1, Arabidopsis NPR1 protein (Arabidopsis, UniProt P93002 1-593, limits assumed).
T1 construct: In the plant experiments it is the endogenous NPR1; also called NIM1; SAI1
T1 sequence (looked up): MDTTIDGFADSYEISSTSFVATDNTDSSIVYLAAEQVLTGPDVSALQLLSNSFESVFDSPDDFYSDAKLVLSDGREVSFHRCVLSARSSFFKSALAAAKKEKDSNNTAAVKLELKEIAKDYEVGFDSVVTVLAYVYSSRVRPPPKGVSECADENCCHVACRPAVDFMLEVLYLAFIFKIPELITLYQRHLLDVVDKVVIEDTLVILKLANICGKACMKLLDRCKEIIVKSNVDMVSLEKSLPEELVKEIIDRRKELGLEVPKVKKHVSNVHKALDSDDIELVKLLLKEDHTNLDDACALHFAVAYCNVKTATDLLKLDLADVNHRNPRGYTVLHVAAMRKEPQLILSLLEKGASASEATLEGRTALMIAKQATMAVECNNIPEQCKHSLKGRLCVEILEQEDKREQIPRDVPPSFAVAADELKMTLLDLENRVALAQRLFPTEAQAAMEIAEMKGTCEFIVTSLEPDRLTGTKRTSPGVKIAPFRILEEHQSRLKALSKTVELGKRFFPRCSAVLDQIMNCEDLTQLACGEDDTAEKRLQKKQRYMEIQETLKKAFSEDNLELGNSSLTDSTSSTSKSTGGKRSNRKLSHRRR
Description: interaction assay (yeast), summary of the examples.

In experiment [1], “NIAD fusion protein (N-terminal first 52 amino acids of NRR fused to a VP16 activation domain) (from UniProt P06492 413-490)” showed a GUS activity from the BG2-Gus reporter after 0.1 mM INA induction (transgenic Arabidopsis line NIAD-22, repeat assay) of 2 fold over WT and a Pst DC3000 bacterial populations at day 4, wild type relative to the NIAD lines of 4 to 5 fold.

B1: rice NRR (Negative Regulator of disease Resistance) protein, wild type (other)
chain: MDATTTDATTAKRKRPAASDIADDAPTTVDEVSDAEVEEFYAILRRMRDATRRLGARPPPPRAPAWRPSFSWEDFADAPPKQAPPPPQQPADHERVAENATPPRRPAPGLDLNVEPPSDAPATPRSARAPA
notes: also called wild type NRR
For the molecule B1, the binding result in the experiment with Arabidopsis NPR1 protein is recorded as “binds”.

B2: NRR single point mutant E39K (other)
chain: B1 chain with E39K
notes: also called EK
In the case of B2, the binding result with Arabidopsis NPR1 protein is listed as “binds”.
